Reference: patent publication US20260258117A1 (ACADEMISCH ZIEKENHUIS LEIDEN H O D N LUMC, published 2026)
One block for each binder: values may come before it.

What was measured:
[1] = biological target: T1, Complement Factor H protein (human, UniProt P08603 19-1231); test: bispecific ELISA and complement activation assay on biotinylated BSA-DNP, FH detected
T1 construct: Plasma protein, bought purified or present in normal human serum; also called FH; CFH

[2] = biological target: T1, Complement Factor H protein; test: bispecific ELISA: BSA-DNP coat, antibody, then FH, FH detected
Method: (§1) BsAbs were tested for binding to both antigens in a bispecific ELISA. MaxiSorp plates (Thermo Scientific, Nunc, 430341) were coated with 50 μL/well BSA-DNP (10 μg/mL, Biosearch Technologies, D-5050-10, conjugation ration 13) in coating buffer (0.1 M Na₂CO₃/NaHCO₃PH 9.6) for 1 hour at 37° C. After every incubation, plates were washed three times with PBS/0.05% Tween 20. Plates were blocked with 100 μL/well PBS/1% BSA for 1 hour at 37° C. After washing, plates were incubated with 50 μL/well (bs) Abs diluted in PBS/0.05% Tween 20/1% BSA (PTB buffer) for 1 hour at 37° C. Next, 1 μg/mL FH (CompTech, A137) or C4BP (CompTech, A109) diluted in PTB buffer was added. FH was detected using goat anti-human FH (Quidel, A312) and HRP-labeled rabbit anti-goat Ig (Dako, P0449), and C4BP was detected using rabbit anti-human C4BP (kind gift from Anna M. Blom, Malmö, Sweden) and HRP-labeled goat anti-rabbit Ig (Dako, P0448), all diluted in PTB buffer. Plates were developed by incubating with 50 μL/well ABTS (Merck, A1888-5G) containing 1:2000 diluted H₂O₂ (Merck, 1072090250), and read at 415 nm using a microplate reader (BIO-RAD iMark). It was confirmed by ELISA that the bsAbs can bind to a specific target (e.g., DNP as a model antigen) as well as FH or C4BP, whereas the parental monospecific antibodies cannot (FIG. 1A).

C4b-binding protein [3] = biological target: T2, C4b-binding protein (human, UniProt P04003 49-597; P20851 18-252); test: bispecific ELISA: BSA-DNP coat, antibody, then C4BP, C4BP detected
T2 construct: also called C4BP
T2 sequence (looked up) 1: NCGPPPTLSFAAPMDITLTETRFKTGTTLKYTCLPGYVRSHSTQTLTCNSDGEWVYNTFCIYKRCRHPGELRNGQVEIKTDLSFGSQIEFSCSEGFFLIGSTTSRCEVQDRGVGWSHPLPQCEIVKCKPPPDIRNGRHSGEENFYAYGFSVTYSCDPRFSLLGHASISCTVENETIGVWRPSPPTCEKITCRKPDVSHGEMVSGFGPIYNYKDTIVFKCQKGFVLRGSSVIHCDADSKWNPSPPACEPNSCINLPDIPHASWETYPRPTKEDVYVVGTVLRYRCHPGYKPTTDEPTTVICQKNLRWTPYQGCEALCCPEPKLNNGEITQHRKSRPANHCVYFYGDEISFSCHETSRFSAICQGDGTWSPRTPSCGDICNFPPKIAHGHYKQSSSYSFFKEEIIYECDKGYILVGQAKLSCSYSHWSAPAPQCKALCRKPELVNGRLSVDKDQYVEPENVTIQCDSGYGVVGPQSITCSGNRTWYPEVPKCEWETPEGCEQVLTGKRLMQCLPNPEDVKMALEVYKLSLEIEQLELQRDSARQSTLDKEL
T2 sequence (looked up) 2: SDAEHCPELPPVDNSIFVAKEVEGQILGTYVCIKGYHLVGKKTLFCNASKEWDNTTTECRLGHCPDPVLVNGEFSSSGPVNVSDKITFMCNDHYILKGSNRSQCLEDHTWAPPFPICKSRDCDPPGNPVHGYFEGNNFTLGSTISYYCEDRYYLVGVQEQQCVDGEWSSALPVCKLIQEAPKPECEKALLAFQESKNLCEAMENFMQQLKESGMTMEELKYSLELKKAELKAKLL
Method: as §1

C4b-binding protein [4] = biological target: T2, C4b-binding protein; test: bispecific ELISA
Method: as §1

T1 sequence (P08603 19-1231 limits assumed): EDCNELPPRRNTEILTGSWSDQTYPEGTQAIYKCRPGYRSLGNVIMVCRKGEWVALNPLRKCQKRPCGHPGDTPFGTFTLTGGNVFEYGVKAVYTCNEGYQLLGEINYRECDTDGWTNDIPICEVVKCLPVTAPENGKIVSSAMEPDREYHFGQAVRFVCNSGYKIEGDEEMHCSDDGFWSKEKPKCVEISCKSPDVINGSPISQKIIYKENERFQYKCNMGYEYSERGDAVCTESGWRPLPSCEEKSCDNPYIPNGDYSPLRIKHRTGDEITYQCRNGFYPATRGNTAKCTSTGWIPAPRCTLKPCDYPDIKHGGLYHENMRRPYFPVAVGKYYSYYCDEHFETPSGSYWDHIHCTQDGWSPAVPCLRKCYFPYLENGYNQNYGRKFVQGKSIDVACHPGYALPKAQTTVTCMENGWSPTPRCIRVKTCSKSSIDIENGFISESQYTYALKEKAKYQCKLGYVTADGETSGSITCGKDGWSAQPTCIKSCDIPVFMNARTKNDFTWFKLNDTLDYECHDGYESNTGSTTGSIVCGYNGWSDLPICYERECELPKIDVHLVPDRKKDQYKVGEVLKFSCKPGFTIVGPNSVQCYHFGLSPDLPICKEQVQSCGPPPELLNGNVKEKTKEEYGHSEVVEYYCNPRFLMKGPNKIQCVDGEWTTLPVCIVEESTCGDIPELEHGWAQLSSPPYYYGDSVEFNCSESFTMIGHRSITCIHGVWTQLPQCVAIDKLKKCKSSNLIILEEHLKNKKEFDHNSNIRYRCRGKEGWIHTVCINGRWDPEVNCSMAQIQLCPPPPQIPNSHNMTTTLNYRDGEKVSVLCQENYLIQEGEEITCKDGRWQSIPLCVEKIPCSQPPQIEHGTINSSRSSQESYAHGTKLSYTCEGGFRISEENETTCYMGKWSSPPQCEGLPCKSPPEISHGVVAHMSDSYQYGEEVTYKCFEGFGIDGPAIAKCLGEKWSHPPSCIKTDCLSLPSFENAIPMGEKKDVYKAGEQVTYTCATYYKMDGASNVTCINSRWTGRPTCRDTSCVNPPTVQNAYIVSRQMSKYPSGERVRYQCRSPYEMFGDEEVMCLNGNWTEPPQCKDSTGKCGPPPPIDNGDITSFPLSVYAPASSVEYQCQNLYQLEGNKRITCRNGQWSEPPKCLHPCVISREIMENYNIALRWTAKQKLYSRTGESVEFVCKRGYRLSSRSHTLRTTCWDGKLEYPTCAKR

- binding result [1]: binds
B1: Anti-FH F405L LALAPG, Anti-biotin K409R LALAPG (bispecific antibody, human IgG1, kappa, L234A L235A)
heavy 1: EVQLQQSGPELVKPGASVKISCKASGYSFTGYFIHWVKQSHVKSLEWFGRINPYNGATDYNQNFKDKAILTIDESSSTAYMEIHSLTSDDSAVYYCARGLFLDYWGQGTTLTVSSASTKGPSVFPLAPSSKSTSGGTAALGCLVKDYFPEPVTVSWNSGALTSGVHTFPAVLQSSGLYSLSSVVTVPSSSLGTQTYICNVNHKPSNTKVDKRVEPKSCDKTHTCPPCPAPEAAGGPSVFLFPPKPKDTLMISRTPEVTCVVVDVSHEDPEVKFNWYVDGVEVHNAKTKPREEQYNSTYRVVSVLTVLHQDWLNGKEYKCKVSNKALGAPIEKTISKAKGQPREPQVYTLPPSREEMTKNQVSLTCLVKGFYPSDIAVEWESNGQPENNYKTTPPVLDSDGSFLLYSKLTVDKSRWQQGNVFSCSVMHEALHNHYTQKSLSLSPGK
light 1: DILMTQSPSSMSVSLGDTVSITCHASQGITSNIGWLQQKPGKSFKGLIYHGTNLEDGVPSRFSGSGSGADYSLTISSLESEDFADYYCVQYAQFPWTFGGGTKLEIKRTVAAPSVFIFPPSDEQLKSGTASVVCLLNNFYPREAKVQWKVDNALQSGNSQESVTEQDSKDSTYSLSSTLTLSKADYEKHKVYACEVTHQGLSSPVTKSFNRGEC
heavy 2: QVKLQESGPGLVAPSQSLSITCTVSGFSLTAYGVDWVRQPPGKGLEWLGVIWGGGRTNYNSGLMSRLSIRKDNSKSQVFLTMNSLQTDDTAKYYCVKHTNWDGGFAYWGQGTTVTVSSASTKGPSVFPLAPSSKSTSGGTAALGCLVKDYFPEPVTVSWNSGALTSGVHTFPAVLQSSGLYSLSSVVTVPSSSLGTQTYICNVNHKPSNTKVDKRVEPKSCDKTHTCPPCPAPEAAGGPSVFLFPPKPKDTLMISRTPEVTCVVVDVSHEDPEVKFNWYVDGVEVHNAKTKPREEQYNSTYRVVSVLTVLHQDWLNGKEYKCKVSNKALGAPIEKTISKAKGQPREPQVYTLPPSREEMTKNQVSLTCLVKGFYPSDIAVEWESNGQPENNYKTTPPVLDSDGSFFLYSRLTVDKSRWQQGNVFSCSVMHEALHNHYTQKSLSLSPGK
light 2: DVVMTQSPLSLPVSLGDQASISCRSGQGLVYSNGDTYLHWYLQKPGQSPKLLIYKVSNRFSGVPDRFSGSGSGTDFTLKISRVEAEDLGVYFCSQSTHFPFTFGSGTKLEIKRTVAAPSVFIFPPSDEQLKSGTASVVCLLNNFYPREAKVQWKVDNALQSGNSQESVTEQDSKDSTYSLSSTLTLSKADYEKHKVYACEVTHQGLSSPVTKSFNRGEC
notes: Made by controlled Fab-arm exchange; also called anti-FH x anti-biotin

- binding result [2]: no binding (tested: 1 µg/mL FH)
- binding result (C4b-binding protein [3]): no binding (tested: 1 µg/mL C4BP)
B2: Anti-DNP K409R LALAPG (antibody, human IgG1, kappa, L234A L235A, V domains shown)
VH: DVRLQESGPGLVKPSQSLSLTCSVTGYSITNSYYWNWIRQFPGNKLEWMVYIGYDGSNNYNPSLKNRISITRDTSKNQFFLKLNSVTTEDTATYYCARATYYGNYRGFAYWGQGTLVTVSA
VL: DIRMTQTTSSLSASLGDRVTISCRASQDISNYLNWYQQKPDGTVKLLIYYTSRLHSGVPSRFSGSGSGTDYSLTISNLEQEDIATYFCQQGNTLPWTFGGGTKLEIKR
notes: also called anti-DNP parental Ab; parental monospecific antibody

- binding result (C4b-binding protein [4]): binds
B3: Anti-C4BP F405L LALAPG, Anti-DNP K409R LALAPG (bispecific antibody, human IgG1, kappa, L234A L235A)
heavy 1: EVQLVESGGGLVKPGGSLKLSCAVSGFIFSDYYMYWVRQTPEKRLEWVATISDGGVYTYYPDSMKGRFTISRDNAKNNLYLQMSSLKSEDTAMYYCVRGDYYGNSLDYWGQGTSVTVSSASTKGPSVFPLAPSSKSTSGGTAALGCLVKDYFPEPVTVSWNSGALTSGVHTFPAVLQSSGLYSLSSVVTVPSSSLGTQTYICNVNHKPSNTKVDKRVEPKSCDKTHTCPPCPAPEAAGGPSVFLFPPKPKDTLMISRTPEVTCVVVDVSHEDPEVKFNWYVDGVEVHNAKTKPREEQYNSTYRVVSVLTVLHQDWLNGKEYKCKVSNKALGAPIEKTISKAKGQPREPQVYTLPPSREEMTKNQVSLTCLVKGFYPSDIAVEWESNGQPENNYKTTPPVLDSDGSFLLYSKLTVDKSRWQQGNVFSCSVMHEALHNHYTQKSLSLSPGK
light 1: DVVMTQTPLTLSITIGQPASISCKSSQSLLDGDGKTYLNWLLQRPGQSPKRLIYLVSKLDSGVPDRFTGSGSGTDFTLKISRVEAEDLGVYYCCQGTHFPWTFGRGTKLEIKRTVAAPSVFIFPPSDEQLKSGTASVVCLLNNFYPREAKVQWKVDNALQSGNSQESVTEQDSKDSTYSLSSTLTLSKADYEKHKVYACEVTHQGLSSPVTKSFNRGEC
heavy 2: DVRLQESGPGLVKPSQSLSLTCSVTGYSITNSYYWNWIRQFPGNKLEWMVYIGYDGSNNYNPSLKNRISITRDTSKNQFFLKLNSVTTEDTATYYCARATYYGNYRGFAYWGQGTLVTVSAASTKGPSVFPLAPSSKSTSGGTAALGCLVKDYFPEPVTVSWNSGALTSGVHTFPAVLQSSGLYSLSSVVTVPSSSLGTQTYICNVNHKPSNTKVDKRVEPKSCDKTHTCPPCPAPEAAGGPSVFLFPPKPKDTLMISRTPEVTCVVVDVSHEDPEVKFNWYVDGVEVHNAKTKPREEQYNSTYRVVSVLTVLHQDWLNGKEYKCKVSNKALGAPIEKTISKAKGQPREPQVYTLPPSREEMTKNQVSLTCLVKGFYPSDIAVEWESNGQPENNYKTTPPVLDSDGSFFLYSRLTVDKSRWQQGNVFSCSVMHEALHNHYTQKSLSLSPGK
light 2: DIRMTQTTSSLSASLGDRVTISCRASQDISNYLNWYQQKPDGTVKLLIYYTSRLHSGVPSRFSGSGSGTDYSLTISNLEQEDIATYFCQQGNTLPWTFGGGTKLEIKRTVAAPSVFIFPPSDEQLKSGTASVVCLLNNFYPREAKVQWKVDNALQSGNSQESVTEQDSKDSTYSLSSTLTLSKADYEKHKVYACEVTHQGLSSPVTKSFNRGEC
notes: Made by controlled Fab-arm exchange; also called anti-C4BP x anti-DNP
